According to patent publication US20190076400A1 (PROTAGONIST THERAPEUTICS, published 2019):
Numbered stars: 1 amine (or outer) side, 2 acyl side, 3 side chain; on linkers, the order of the positions; unused ones are H or OH. Square brackets hold non-standard residues; d marks the D form. Phe(2,6-Me2,4-CONH2) = Cc1cc(C(N)=O)cc(C)c1C[C@H](N)C(=O)O; Bip = N[C@@H](Cc1ccc(-c2ccccc2)cc1)C(=O)O; NMeW = CN[C@@H](Cc1c[nH]c2ccccc12)C(=O)O; Phe(4-CN) = N#Cc1ccc(C[C@H](N)C(=O)O)cc1; Phe(4-F) = N[C@@H](Cc1ccc(F)cc1)C(=O)O; Dmt = Cc1cc(O)cc(C)c1C[C@H](N)C(=O)O; NMeI = CC[C@H](C)[C@H](NC)C(=O)O; hPhe = N[C@@H](CCc1ccccc1)C(=O)O; NMeβAla = CN(CCC(=O)[*:2])[*:1]; Tic = O=C(O)[C@@H]1Cc2ccccc2CN1; dTic = O=C(O)[C@H]1Cc2ccccc2CN1; β3hF = N[C@H](CC(=O)O)Cc1ccccc1; NMeL = CN[C@@H](CC(C)C)C(=O)O; NMeNva = CCC[C@H](NC)C(=O)O; NMeV = CN[C@H](C(=O)O)C(C)C; NMeA = CN[C@@H](C)C(=O)O; Nle = CCCC[C@H](N)C(=O)O; dNMeA = CN[C@H](C)C(=O)O; Aib = CC(C)(N)C(=O)O; Sar = CNCC(=O)O

B1: H-DMT-r-Bip-K-NH2 (peptide)
peptide: H-[Dmt][dR][Bip]K-NH2
SMILES: Cc1cc(O)cc(C)c1C[C@H](N)C(=O)N[C@H](CCCNC(=N)N)C(=O)N[C@@H](Cc1ccc(-c2ccccc2)cc1)C(=O)N[C@@H](CCCCN)C(N)=O
B2: H-DMT-r-Phe(4-F)-Sar-NH2 (peptide)
peptide: H-[Dmt][dR][Phe(4-F)][Sar]-NH2
SMILES: Cc1cc(O)cc(C)c1C[C@H](N)C(=O)N[C@H](CCCNC(=N)N)C(=O)N[C@@H](Cc1ccc(F)cc1)C(=O)N(C)CC(N)=O
B3: H-Phe(DMC)-G-G-bhF-Sar-NH2 (peptide)
peptide: H-[Phe(2,6-Me2,4-CONH2)]GG[β3hF][Sar]-NH2
SMILES: Cc1cc(C(N)=O)cc(C)c1C[C@H](N)C(=O)NCC(=O)NCC(=O)N[C@H](CC(=O)N(C)CC(N)=O)Cc1ccccc1
B4: H-DMT-a-ILeu-bhF-Sar-NH2 (peptide)
peptide: H-[Dmt][dA]I[β3hF][Sar]-NH2
SMILES: CC[C@H](C)[C@H](NC(=O)[C@@H](C)NC(=O)[C@@H](N)Cc1c(C)cc(O)cc1C)C(=O)N[C@H](CC(=O)N(C)CC(N)=O)Cc1ccccc1
B5: H-DMT-r-F-Sar-NH2 (peptide)
peptide: H-[Dmt][dR]F[Sar]-NH2
SMILES: Cc1cc(O)cc(C)c1C[C@H](N)C(=O)N[C@H](CCCNC(=N)N)C(=O)N[C@@H](Cc1ccccc1)C(=O)N(C)CC(N)=O
B6: H-DMT-dTic-F-Sar-NH2 (peptide)
peptide: H-[Dmt][dTic]F[Sar]-NH2
SMILES: Cc1cc(O)cc(C)c1C[C@H](N)C(=O)N1Cc2ccccc2C[C@@H]1C(=O)N[C@@H](Cc1ccccc1)C(=O)N(C)CC(N)=O
B7: H-Phe(DMC)-(D)Thr-G-bhF-Sar-NH2 (peptide)
peptide: H-[Phe(2,6-Me2,4-CONH2)][dT]G[β3hF][Sar]-NH2
SMILES: Cc1cc(C(N)=O)cc(C)c1C[C@H](N)C(=O)N[C@@H](C(=O)NCC(=O)N[C@H](CC(=O)N(C)CC(N)=O)Cc1ccccc1)[C@H](C)O
B8: H-DMT-(D)Thr-G-bhF-Sar-NH2 (peptide)
peptide: H-[Dmt][dT]G[β3hF][Sar]-NH2
SMILES: Cc1cc(O)cc(C)c1C[C@H](N)C(=O)N[C@@H](C(=O)NCC(=O)N[C@H](CC(=O)N(C)CC(N)=O)Cc1ccccc1)[C@H](C)O
B9: H-DMT-Tic-G-bhF-Sar-NH2 (peptide)
peptide: H-[Dmt][Tic]G[β3hF][Sar]-NH2
SMILES: Cc1cc(O)cc(C)c1C[C@H](N)C(=O)N1Cc2ccccc2C[C@H]1C(=O)NCC(=O)N[C@H](CC(=O)N(C)CC(N)=O)Cc1ccccc1
B10: H-DMT-r-W-N(Me)bAla-OH (peptide)
peptide: H-[Dmt][dR]W[NMeβAla]-OH
SMILES: Cc1cc(O)cc(C)c1C[C@H](N)C(=O)N[C@H](CCCNC(=N)N)C(=O)N[C@@H](Cc1c[nH]c2ccccc12)C(=O)N(C)CCC(=O)O
B11: H-DMT-N(Me)-a-F-Sar-NH2 (peptide)
peptide: H-[Dmt][dNMeA]F[Sar]-NH2
SMILES: Cc1cc(O)cc(C)c1C[C@H](N)C(=O)N(C)[C@H](C)C(=O)N[C@@H](Cc1ccccc1)C(=O)N(C)CC(N)=O
B12: H-DMT-a-Aib-bhF-Sar-NH2 (peptide)
peptide: H-[Dmt][dA][Aib][β3hF][Sar]-NH2
SMILES: Cc1cc(O)cc(C)c1C[C@H](N)C(=O)N[C@H](C)C(=O)NC(C)(C)C(=O)N[C@H](CC(=O)N(C)CC(N)=O)Cc1ccccc1
B13: H-DMT-(D)Tyr-G-bhF-Sar-NH2 (peptide)
peptide: H-[Dmt][dY]G[β3hF][Sar]-NH2
SMILES: Cc1cc(O)cc(C)c1C[C@H](N)C(=O)N[C@H](Cc1ccc(O)cc1)C(=O)NCC(=O)N[C@H](CC(=O)N(C)CC(N)=O)Cc1ccccc1
B14: H-DMT-(D)Asp-G-bhF-Sar-NH2 (peptide)
peptide: H-[Dmt][dD]G[β3hF][Sar]-NH2
SMILES: Cc1cc(O)cc(C)c1C[C@H](N)C(=O)N[C@H](CC(=O)O)C(=O)NCC(=O)N[C@H](CC(=O)N(C)CC(N)=O)Cc1ccccc1
B15: H-DMT-a-hF-Nle-NH2 (peptide)
peptide: H-[Dmt][dA][hPhe][Nle]-NH2
SMILES: CCCC[C@H](NC(=O)[C@H](CCc1ccccc1)NC(=O)[C@@H](C)NC(=O)[C@@H](N)Cc1c(C)cc(O)cc1C)C(N)=O
B16: H-DMT-a-Leu-bhF-Sar-NH2 (peptide)
peptide: H-[Dmt][dA]L[β3hF][Sar]-NH2
SMILES: Cc1cc(O)cc(C)c1C[C@H](N)C(=O)N[C@H](C)C(=O)N[C@@H](CC(C)C)C(=O)N[C@H](CC(=O)N(C)CC(N)=O)Cc1ccccc1
B17: H-DMT-a-hF-Sar-NH2 (peptide)
peptide: H-[Dmt][dA][hPhe][Sar]-NH2
SMILES: Cc1cc(O)cc(C)c1C[C@H](N)C(=O)N[C@H](C)C(=O)N[C@@H](CCc1ccccc1)C(=O)N(C)CC(N)=O
B18: H-DMT-r-Phe(4-CN)-Sar-NH2 (peptide)
peptide: H-[Dmt][dR][Phe(4-CN)][Sar]-NH2
SMILES: Cc1cc(O)cc(C)c1C[C@H](N)C(=O)N[C@H](CCCNC(=N)N)C(=O)N[C@@H](Cc1ccc(C#N)cc1)C(=O)N(C)CC(N)=O
B19: H-DMT-dTic-G-F-Sar-NH2 (peptide)
peptide: H-[Dmt][dTic]GF[Sar]-NH2
SMILES: Cc1cc(O)cc(C)c1C[C@H](N)C(=O)N1Cc2ccccc2C[C@@H]1C(=O)NCC(=O)N[C@@H](Cc1ccccc1)C(=O)N(C)CC(N)=O
B20: H-DMT-r-H-K-NH2 (peptide)
peptide: H-[Dmt][dR]HK-NH2
SMILES: Cc1cc(O)cc(C)c1C[C@H](N)C(=O)N[C@H](CCCNC(=N)N)C(=O)N[C@@H](Cc1c[nH]cn1)C(=O)N[C@@H](CCCCN)C(N)=O
B21: H-Phe(DMC)-Tic-G-bhF-Sar-NH2 (peptide)
peptide: H-[Phe(2,6-Me2,4-CONH2)][Tic]G[β3hF][Sar]-NH2
SMILES: Cc1cc(C(N)=O)cc(C)c1C[C@H](N)C(=O)N1Cc2ccccc2C[C@H]1C(=O)NCC(=O)N[C@H](CC(=O)N(C)CC(N)=O)Cc1ccccc1
B22: H-DMT-G-G-bhF-Sar-NH2 (peptide)
peptide: H-[Dmt]GG[β3hF][Sar]-NH2
SMILES: Cc1cc(O)cc(C)c1C[C@H](N)C(=O)NCC(=O)NCC(=O)N[C@H](CC(=O)N(C)CC(N)=O)Cc1ccccc1
B23: H-DMT-(D)Asp-G-bhF-N(Me)-Val-OH (peptide)
peptide: H-[Dmt][dD]G[β3hF][NMeV]-OH
SMILES: Cc1cc(O)cc(C)c1C[C@H](N)C(=O)N[C@H](CC(=O)O)C(=O)NCC(=O)N[C@H](CC(=O)N(C)[C@H](C(=O)O)C(C)C)Cc1ccccc1
B24: H-DMT-(D)Asp-G-bhF-N(Me)-Trp-OH (peptide)
peptide: H-[Dmt][dD]G[β3hF][NMeW]-OH
SMILES: Cc1cc(O)cc(C)c1C[C@H](N)C(=O)N[C@H](CC(=O)O)C(=O)NCC(=O)N[C@H](CC(=O)N(C)[C@@H](Cc1c[nH]c2ccccc12)C(=O)O)Cc1ccccc1
B25: H-DMT-(D)Asp-G-bhF-N(Me)-Ala-OH (peptide)
peptide: H-[Dmt][dD]G[β3hF][NMeA]-OH
SMILES: Cc1cc(O)cc(C)c1C[C@H](N)C(=O)N[C@H](CC(=O)O)C(=O)NCC(=O)N[C@H](CC(=O)N(C)[C@@H](C)C(=O)O)Cc1ccccc1
B26: H-DMT-(D)Asp-G-bhF-N(Me)-Nva-OH (peptide)
peptide: H-[Dmt][dD]G[β3hF][NMeNva]-OH
SMILES: CCC[C@@H](C(=O)O)N(C)C(=O)C[C@H](Cc1ccccc1)NC(=O)CNC(=O)[C@@H](CC(=O)O)NC(=O)[C@@H](N)Cc1c(C)cc(O)cc1C
B27: H-DMT-(D)Asp-G-bhF-N(Me)-Leu-OH (peptide)
peptide: H-[Dmt][dD]G[β3hF][NMeL]-OH
SMILES: Cc1cc(O)cc(C)c1C[C@H](N)C(=O)N[C@H](CC(=O)O)C(=O)NCC(=O)N[C@H](CC(=O)N(C)[C@@H](CC(C)C)C(=O)O)Cc1ccccc1
B28: H-DMT-(D)Asp-G-bhF-N(Me)-Ile-OH (peptide)
peptide: H-[Dmt][dD]G[β3hF][NMeI]-OH
SMILES: CC[C@H](C)[C@@H](C(=O)O)N(C)C(=O)C[C@H](Cc1ccccc1)NC(=O)CNC(=O)[C@@H](CC(=O)O)NC(=O)[C@@H](N)Cc1c(C)cc(O)cc1C

Target: T1, µ-opioid receptor (MOR), Human-ORPM1 (human, UniProt P35372 1-400)
Test: cell-based or functional assay

T1 sequence (P35372 whole entry): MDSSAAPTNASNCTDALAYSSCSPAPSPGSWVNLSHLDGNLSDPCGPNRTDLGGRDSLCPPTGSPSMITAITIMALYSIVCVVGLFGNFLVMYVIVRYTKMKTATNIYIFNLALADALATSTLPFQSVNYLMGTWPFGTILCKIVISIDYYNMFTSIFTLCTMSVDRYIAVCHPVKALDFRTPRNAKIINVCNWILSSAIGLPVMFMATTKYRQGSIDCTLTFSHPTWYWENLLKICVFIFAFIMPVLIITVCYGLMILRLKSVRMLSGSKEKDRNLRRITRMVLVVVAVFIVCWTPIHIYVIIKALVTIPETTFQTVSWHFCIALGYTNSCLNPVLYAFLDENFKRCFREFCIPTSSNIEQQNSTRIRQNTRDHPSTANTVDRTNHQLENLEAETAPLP

Row | Binder | MOR EC50
1 | B1 | ≤ 200 nM
2 | B2 | ≤ 1 nM
3 | B3 | ≤ 1 nM
4 | B4 | ≤ 1 nM
5 | H-[Dmt][dR]X[NMeβAla]-OH (not fully specified (residue 3); printed as H-DMT-r-Homo-F-N(Me)bAla-OH) [H-DMT-r-Homo-F-N(Me)bAla-OH] | ≤ 1 nM
6 | B5 | ≤ 1 nM
7 | B6 | ≤ 1 nM
8 | B7 | ≤ 10 nM
9 | B8 | ≤ 1 nM
10 | B9 | ≤ 200 nM
11 | B10 | ≤ 1 nM
12 | B11 | ≤ 1 nM
13 | B12 | ≤ 1 nM
14 | B13 | ≤ 1 nM
15 | B14 | ≤ 1 nM
16 | B15 | ≤ 1 nM
17 | B16 | ≤ 1 nM
18 | B17 | ≤ 1 nM
19 | B18 | ≤ 10 nM
20 | B19 | ≤ 1 nM
21 | H-[Dmt][dNMeA]XG-NH2 (not fully specified (residue 3); printed as DMT-N(Me)a-Aba-G) [H-DMT-N(Me)-a-Aba-G-NH2] | ≤ 1 nM
22 | B20 | ≤ 50 nM
23 | B21 | ≤ 200 nM
24 | B22 | ≤ 1 nM

Target: T2, δ-opioid receptor (DOR), Human-ORPD1 (human, UniProt P41143 1-372)
Test: cell-based or functional assay

T2 sequence (P41143 whole entry, stated change not applied): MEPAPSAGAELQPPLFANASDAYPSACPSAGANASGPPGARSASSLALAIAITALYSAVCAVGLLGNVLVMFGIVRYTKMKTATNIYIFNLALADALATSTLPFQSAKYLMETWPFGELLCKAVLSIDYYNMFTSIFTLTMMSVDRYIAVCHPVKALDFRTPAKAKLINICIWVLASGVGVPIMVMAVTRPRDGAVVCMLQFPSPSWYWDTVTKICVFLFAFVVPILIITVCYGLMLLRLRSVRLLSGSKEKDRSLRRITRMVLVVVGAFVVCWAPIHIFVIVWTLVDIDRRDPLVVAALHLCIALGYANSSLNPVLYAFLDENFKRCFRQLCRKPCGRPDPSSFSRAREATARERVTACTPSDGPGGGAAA

Row | Binder | DOR EC50
25 | B1 | > 200 nM
26 | B2 | ≤ 10 nM
27 | B3 | ≤ 1 nM
28 | B4 | ≤ 50 nM
29 | H-[Dmt][dR]X[NMeβAla]-OH (not fully specified (residue 3); printed as H-DMT-r-Homo-F-N(Me)bAla-OH) [H-DMT-r-Homo-F-N(Me)bAla-OH] | ≤ 1 nM
30 | B5 | ≤ 10 nM
31 | B6 | ≤ 10 nM
32 | B7 | ≤ 1 nM
33 | B8 | ≤ 1 nM
34 | B9 | ≤ 200 nM
35 | B10 | ≤ 50 nM
36 | B11 | ≤ 10 nM
37 | B12 | ≤ 1 nM
38 | B13 | ≤ 1 nM
39 | B14 | ≤ 1 nM
40 | B15 | ≤ 1 nM
41 | B16 | ≤ 50 nM
42 | B17 | ≤ 1 nM
43 | B18 | ≤ 1 nM
44 | B19 | ≤ 1 nM
45 | H-[Dmt][dNMeA]XG-NH2 (not fully specified (residue 3); printed as DMT-N(Me)a-Aba-G) [H-DMT-N(Me)-a-Aba-G-NH2] | ≤ 1 nM
46 | B20 | > 200 nM
47 | B21 | ≤ 200 nM
48 | B22 | ≤ 1 nM

Target: T1, µ-opioid receptor (MOR), Human-ORPM1
Test: cell-based or functional assay
Remark: another data set of the same source

Row | Binder | MOR EC50
49 | B23 | ≤ 1 nM
50 | B24 | ≤ 1 nM
51 | B25 | ≤ 1 nM
52 | B26 | ≤ 1 nM
53 | B27 | ≤ 1 nM
54 | B28 | ≤ 1 nM

Target: T2, δ-opioid receptor (DOR), Human-ORPD1
Test: cell-based or functional assay
Remark: another data set of the same source

Row | Binder | DOR EC50
55 | B23 | ≤ 1 nM
56 | B24 | ≤ 1 nM
57 | B25 | ≤ 1 nM
58 | B26 | ≤ 1 nM
59 | B27 | ≤ 1 nM
60 | B28 | ≤ 1 nM
